Laboratory results: publication PMC4737123

Key:
[1] = molecular target: purified human IgM (non‐specific IgM) (human); assay: AUC; sedimentation velocity, 40 000 r.p.m., 20°C, PBS; FV6 alone, IgM alone, and IgM (0.2 μM) with FV6 at molar ratios 1:1, 1:2 and 1:3; continuous size distribution (SEDFIT)
[2] = molecular target: purified human IgM (non‐specific IgM) (human); assay: SPR; Biacore 2000; IgM (750 RU) immobilised on a CM4 chip by amine coupling; FV6 or FV2 flowed over (1.125-18 nM); HEPES buffer (0.01 M HEPES, 0.15 M NaCl, 3 mM EDTA, 0.005% P20) pH 7.4, 20°C; global 1:1 interaction model

recombinant full‐length HB3VAR06 (FV6), entire ectodomain of the PfEMP1 protein HB3VAR06 (domain or fragment)
stoichiometry N [1]: 2 FV6 per IgM
Kd [2]: 100 pM
koff [2]: 0.0003 s⁻¹
kon [2]: 2.3e+06 M⁻¹ s⁻¹

recombinant full‐length IT4VAR04 (a VAR2CSA‐type PfEMP1; FV2) (natural protein)
Kd [2]: 300 pM
koff [2]: 0.00051 s⁻¹
kon [2]: 1.8e+06 M⁻¹ s⁻¹
